Laboratory results from patent publication US20180355338A1.

Columns and labels:
[1] = target: TY-145 protease variant S173P, S175P, F180Y, R224G (Bacillus sp. TY-145); assay: Ki fitted from Suc-AAPF-pNA activity; Model B detergent; ratio against m3 (without R224G)
[2] = target: TY-145 protease variant S173P, S175P, F180Y, L184D (Bacillus sp. TY-145); assay: Ki fitted from Suc-AAPF-pNA activity; Model B detergent; ratio against m3 (without L184D)
[3] = target: TY-145 protease variant K146F, S173P, S175P, F180Y (Bacillus sp. TY-145); assay: Ki fitted from Suc-AAPF-pNA activity; Tris buffer pH 8; ratio against m3 (without K146F)
[4] = target: TY-145 protease variant S173P, S175P, I178F, F180Y (Bacillus sp. TY-145); assay: Ki fitted from Suc-AAPF-pNA activity; Model B detergent; ratio against m3 (without I178F)
[5] = target: TY-145 protease variant S173P, S175P, F180Y, L184F (Bacillus sp. TY-145); assay: Ki fitted from Suc-AAPF-pNA activity; Model B detergent; ratio against m3 (without L184F)
[6] = target: TY-145 protease variant I150N, S173P, S175P, F180Y (Bacillus sp. TY-145); assay: Ki fitted from Suc-AAPF-pNA activity; Model B detergent; ratio against m3 (without I150N)
[7] = target: TY-145 protease variant S173P, S175P, N176Y, F180Y (Bacillus sp. TY-145); assay: Ki fitted from Suc-AAPF-pNA activity; Model B detergent; ratio against m3 (without N176Y)
[8] = target: TY-145 protease variant S27K, S171D, S173P, G174R, S175P, G182A, L184F, Q198E, N199K, R224G, T297P (Bacillus sp. TY-145); assay: Ki fitted from Suc-AAPF-pNA activity; Model B detergent; ratio against m12 (without R224G)
[9] = target: TY-145 protease variant S27K, S171N, S173P, G174R, S175P, F180Y, G182A, L184F, Q198E, N199K, R224G, T297P (Bacillus sp. TY-145); assay: Ki fitted from Suc-AAPF-pNA activity; Model B detergent; ratio against m13 (without R224G)
[10] = target: TY-145 protease variant S27K, S173P, G174K, S175P, F180Y, L184Y, Q197K, Q198E, T297P (Bacillus sp. TY-145); assay: Ki fitted from Suc-AAPF-pNA activity; Model B detergent; ratio against m10 (without L184Y)
[11] = target: TY-145 protease variant S27K, I150N, S171N, S173P, G174R, S175P, F180Y, Q198E, T297P (Bacillus sp. TY-145); assay: Ki fitted from Suc-AAPF-pNA activity; Model B detergent; ratio against m4 (without I150N)
[12] = target: TY-145 protease variant K146A, S173P, S175P, F180Y (Bacillus sp. TY-145); assay: Ki fitted from Suc-AAPF-pNA activity; Tris buffer pH 8; ratio against m3 (without K146A)
[13] = target: TY-145 protease variant S27K, I121V, S171N, S173P, G174R, S175P, F180Y, Q198E, R224S, T297P (Bacillus sp. TY-145); assay: Ki fitted from Suc-AAPF-pNA activity; Model B detergent; ratio against m6 (without R224S)
[14] = target: TY-145 protease variant K146W, S173P, S175P, F180Y (Bacillus sp. TY-145); assay: Ki fitted from Suc-AAPF-pNA activity; Model B detergent; ratio against m3 (without K146W)
[15] = target: TY-145 protease variant S27K, S171N, S173P, G174R, S175P, F180Y, L184W, Q198E, T297P (Bacillus sp. TY-145); assay: Ki fitted from Suc-AAPF-pNA activity; Model B detergent; ratio against m4 (without L184W)
[16] = target: TY-145 protease variant K146T, S173P, S175P, F180Y (Bacillus sp. TY-145); assay: Ki fitted from Suc-AAPF-pNA activity; Model B detergent; ratio against m3 (without K146T)
[17] = target: TY-145 protease variant K146N, S173P, S175P, F180Y (Bacillus sp. TY-145); assay: Ki fitted from Suc-AAPF-pNA activity; Model B detergent; ratio against m3 (without K146N)
[18] = target: TY-145 protease variant S114Q, S173P, S175P, F180Y (Bacillus sp. TY-145); assay: Ki fitted from Suc-AAPF-pNA activity; Tris buffer pH 8; ratio against m3 (without S114Q)
[19] = target: TY-145 protease variant I150A, S173P, S175P, F180Y (Bacillus sp. TY-145); assay: Ki fitted from Suc-AAPF-pNA activity; Tris buffer pH 8; ratio against m3 (without I150A)
[20] = target: TY-145 protease variant K146W, S173P, S175P, F180Y (Bacillus sp. TY-145); assay: Ki fitted from Suc-AAPF-pNA activity; Tris buffer pH 8; ratio against m3 (without K146W)
[21] = target: TY-145 protease variant S27K, V162T, S173P, G174K, S175P, F180Y, L184F, Q197K, Q198E, T297P (Bacillus sp. TY-145); assay: Ki fitted from Suc-AAPF-pNA activity; Model B detergent; ratio against m14 (without L184F)
[22] = target: TY-145 protease variant S173P, S175P, F180Y, L184W (Bacillus sp. TY-145); assay: Ki fitted from Suc-AAPF-pNA activity; Model B detergent; ratio against m3 (without L184W)
[23] = target: TY-145 protease variant K146T, S173P, S175P, F180Y (Bacillus sp. TY-145); assay: Ki fitted from Suc-AAPF-pNA activity; Tris buffer pH 8; ratio against m3 (without K146T)
[24] = target: TY-145 protease variant S114Q, S173P, S175P, F180Y (Bacillus sp. TY-145); assay: Ki fitted from Suc-AAPF-pNA activity at 8 inhibitor concentrations; Model B detergent; ratio against m3 (without S114Q)

“Z-Gly-Ala-NHCH(CH2C6H4pOH)C(OH)(SO3Na)-H, wherein Z is benzyloxycarbonyl (peptide)” showed a relative Ki mutation [1] of 0.47, a relative Ki mutation [2] of 0.37 and a relative Ki mutation [3] of 0.19. For the same substance, the relative Ki mutation [4] was 0.5, the relative Ki mutation [5] was 0.31 and the relative Ki mutation [6] was 0.35. The relative Ki mutation [7] was 0.81, the relative Ki mutation [8] was 0.49 and the relative Ki mutation [9] was 0.69. For the same substance, the relative Ki mutation [10] was 0.32, the relative Ki mutation [11] was 0.24 and the relative Ki mutation [12] was 0.29. For the same substance, the relative Ki mutation [13] was 0.56, the relative Ki mutation [14] was 0.23 and the relative Ki mutation [15] was 0.57. For the same substance, the relative Ki mutation [16] was 0.08, the relative Ki mutation [17] was 0.93 and the relative Ki mutation [18] was 0.34. For the same substance, the relative Ki mutation [19] was 0.4, the relative Ki mutation [20] was 0.16 and the relative Ki mutation [21] was 0.17. The relative Ki mutation [22] was 0.5, the relative Ki mutation [23] was 0.06 and the relative Ki mutation [24] was 0.63.
